Results taken from patent US6512102B1, “Compositions and methods of diagnosis and treatment using casein kinase I” (Chiron Corporation, priority 1998, dated 2003).
Like-named read-outs stand apart in the source and are kept apart here.

Tests used:
Arm (β-catenin) = Arm (β-catenin) protein level in stable Drosophila Schneider cells, Western blot; type: cell-based
Description: Drosophila Schneider cell lines were derived that stably express CKIε in the presence or absence of Drosophila Sgg (GSK3) protein. CKIε and sgg (GSK3) gene expression were controlled by a metallothionein promoter which is induced by copper. […] In the cells expressing CKIε and Sgg (GSK3), Arm (β-catenin) protein level is reduced.
CKIε was PCR-cloned into a vector pRmHa-3 containing a copper-inducible promoter (metallothionine). It was co-transfected with pMKK3 containing the neo-gene (G418-resistant gene) into Drosophila Schneider cells. G418 was used for selection of a stable cell line. In addition, stable cell lines containing combinations of CKIε+wt sgg, CKIε+Actsgg, CKIKD, CKIKD+DN Sgg were made. Actsgg is a mutant containing a mutation of Ser9 to Ala. To detect stabilized Arm, cells were plated 16 hours before the copper induction and lysed three hours after the copper induction. Western blots were performed with anti-Arm mAb 7A12.

Wnt pathway = Wnt pathway activation by CKI isoforms (ectopic axis in Xenopus embryos and Lef-1 reporter gene assay); type: cell-based
Protocol: There are seven mammalian CKI isoforms (α, β, γ1−3, δ and ε). All these isoforms contain a conserved serine-threonine kinase domain and various amino terminal and carboxyl terminal domains. CKIε and CKIδ the most closely related isoforms have a longer carboxy terminus compared to the other isoforms. […] The activation of the Wnt pathway was analyzed by induction of ectopic axis in Xenopus embryos and the Lef-1 reporter gene assay.
Lef-1 reporter assays were carried out as done as described in Sakanaka et al. (1998) Proc Natl Acad Sci USA. 95:3020-3. For example, 293 cells were seeded at 2×10^5 cells/well in 12-well culture plates. Cells were transfected with 0.2 μg of the luciferase reporter gene, 0.02 μg of Lef-1, 0.03 μg of pTK-β-gal as an internal control, the indicated amount of CKIε, Axin or Wnt-1 cDNA, and pcDNA3.1 vector to a total amount of 0.4 μg of plasmids. Transfection was performed by Lipofectamine (Lifetechnologies Inc. #18324012). Luciferase and β-gal activities were measured 48 h after transfection. Relative light units (RLU) were measured with a luminometer (Analytical Luminescence Laboratory, Monolight 2010).

GSK3 = test: In vitro kinase assay on GSK3; type: biochemical
Description: B) Luciferase activity transduced by Dvl-1 was inhibited by CKI lys→arg 38. […] It was immunoprecipitated using anti-HA antibody and mixed with Immunoprecipitated GSK3.

[1] = test system: Lef-1 dependent transcription; test: Lef-1 enhancer luciferase reporter assay in Cos cells; type: cell-based
Protocol: Combinations of Wnt-1, CKIε, CKI kinase dead variant (lys→arg 38) and Lef-1 were transfected into Cos cells with a luciferase gene driven by multiple copies of Lef enhancer elements. As an internal control of transfection efficiency, the β-galactosidase gene driven by the SV40 promoter was co-transfected in all samples. 24 hours after transfection, cells were lysed and the lysate was tested for luciferase activity. The luciferase activity was normalized with respect to β-galactosidase activity. […] Dorsoanterior index (DAI) grade numbers were assigned to the phenotypes of the embryos. A grade 5 embryo is normal; a grade 3 embryo is cyclopic (one eye); a grade 1 embryo has a tail fin and somites but no head (acephalic); and a grade 0 embryo has no dorsoanterior structures (Kao et al., 1988).
The effect of CKI on Lef-1 dependent transcription in Cos mammalian cells was examined. A luciferase reporter gene driven by multiple copies of the Lef-I enhancer sequence was used. When only Wnt-I or lef-I or CKIε was transfected with the reporter construct, luciferase activity was induced only 2 to 3 fold (FIG. 1A). When Lef-1 was cotransfected with either Wnt-1 or CKIε, luciferase activity was induced 30 or 12 fold respectively.
Luciferase reporter plasmid contains multiple Lef-I enhancer sites upstream of the fos basal promoter. Various DNA plasmids encoding Wnt-1, CKIε , Dvl-1, GSK3 etc. were co-transfected with a luciferase reporter plasmid and a SV40 β-galactosidase plasmid into 24-well Cos cell culture. For each well, 0.5 μg total DNA was in a ratio of 0.08 μg:016 μg:0.02 μg for signaling molecules:luciferase: β-gal. SV40 β-gal construct was used as an internal transfection control, since β-gal activity is independent of the Wnt-1 signaling molecules. Transfection was done using LT1 (5 μl/μg DNA) (Panvera Co. # MIR23 10). Each sample was transfected in triplex repeats to obtain a statistical value. After 24 hours, cells were washed once with PBS and lysed in 50 μl/well lysis buffer supplied with the luciferase assay kit (Promega cat# EI500). 10 μl of each sample was aliquoted into two sets of tubes, one set for the luciferase assay and another for β-gal chemiluminescent reporter assay (Galacto-Light, TROPIX Inc. #BL100G). The result of the luciferase assay was divided by the corresponding β-gal activity, and then averaged.

Axin = target: T1, Axin (Homo sapiens, UniProt O15169); test: Co-immunoprecipitation with Axin in 293 cells; type: binding; details: both molecules co-expressed in 293 cells
T1 construct: expressed in transfected cells; host or cells: 293 cells
Protocol: Interaction of CKI with Axin When Axin was expressed in 293 cells, endogenous CKIε was found in the Axin immune-complex.
Cells were washed with PBS and lysed in buffer (20 mM Tris.HCl, pH 7.5/1 mM EDTA/0. 1% Triton X-100/[…]/1 mM phenylmethylsulfonyl fluoride/10 μg/ml each of aprotinin and leupeptin). For immunoprecipitation, cell lysates were incubated with various antibodies for 4 hours at 4° C., then added Dynabeads M-450 Sheep anti-Mouse IgG (Dynal Inc. #110.01). Enhance chemiluminescence reagents (Amersham Pharmacia Biotech) were used for detection of the immunoblots.

T1 sequence (O15169 whole entry, species assumed): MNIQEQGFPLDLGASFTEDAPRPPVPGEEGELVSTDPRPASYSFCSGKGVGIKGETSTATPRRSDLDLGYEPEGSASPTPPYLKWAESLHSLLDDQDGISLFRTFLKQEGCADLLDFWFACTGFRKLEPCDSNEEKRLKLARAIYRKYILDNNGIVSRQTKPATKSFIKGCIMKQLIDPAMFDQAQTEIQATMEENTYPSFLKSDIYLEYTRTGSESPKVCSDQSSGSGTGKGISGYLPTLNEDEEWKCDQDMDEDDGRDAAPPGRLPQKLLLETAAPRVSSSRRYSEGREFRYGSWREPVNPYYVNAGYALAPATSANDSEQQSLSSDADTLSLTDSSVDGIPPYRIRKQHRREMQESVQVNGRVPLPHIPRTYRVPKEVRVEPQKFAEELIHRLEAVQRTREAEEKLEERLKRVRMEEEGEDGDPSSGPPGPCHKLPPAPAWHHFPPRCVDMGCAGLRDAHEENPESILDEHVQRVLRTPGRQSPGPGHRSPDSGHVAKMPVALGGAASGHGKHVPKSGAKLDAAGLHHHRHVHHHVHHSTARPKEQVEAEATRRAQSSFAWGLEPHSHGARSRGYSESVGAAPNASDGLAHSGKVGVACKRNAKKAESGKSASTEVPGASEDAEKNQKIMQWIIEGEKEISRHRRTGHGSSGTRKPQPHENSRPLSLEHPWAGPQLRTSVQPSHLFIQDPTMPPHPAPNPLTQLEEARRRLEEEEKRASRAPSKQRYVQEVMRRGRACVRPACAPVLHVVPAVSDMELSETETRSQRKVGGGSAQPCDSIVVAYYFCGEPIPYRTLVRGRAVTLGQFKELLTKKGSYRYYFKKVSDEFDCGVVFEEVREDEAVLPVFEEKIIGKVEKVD

B1: Sgg: Drosophila Sgg (GSK3) protein, copper-inducible expression (protein, UniProt P18431 1-514, looked up)
Protein kinase shaggy: MSGRPRTSSFAEGNKQSPSLVLGGVKTCSRDGSKITTVVATPGQGTDRVQEVSYTDTKVIGNGSFGVVFQAKLCDTGELVAIKKVLQDRRFKNRELQIMRKLEHCNIVKLLYFFYSSGEKRDEVFLNLVLEYIPETVYKVARQYAKTKQTIPINFIRLYMYQLFRSLAYIHSLGICHRDIKPQNLLLDPETAVLKLCDFGSAKQLLHGEPNVSYICSRYYRAPELIFGAINYTTKIDVWSAGCVLAELLLGQPIFPGDSGVDQLVEVIKVLGTPTREQIREMNPNYTEFKFPQIKSHPWQKVFRIRTPTEAINLVSLLLEYTPSARITPLKACAHPFFDELRMEGNHTLPNGRDMPPLFNFTEHELSIQPSLVPQLLPKHLQNASGPGGNRPSAGGAASIAASGSTSVSSTGSGASVEGSAQPQSQGTAAAAGSGSGGATAGTGGASAGGPGSGNNSSSGGASGAPSAVAAGGANAAVAGGAGGGGGAGAATAAATATGAIGATNAGGANVTDS
B1 was tested, and the “Arm (β-catenin) protein level” value (Arm (β-catenin); cells expressing CKIε and Sgg (GSK3)) was “reduced”.

B2: CKIδ: casein kinase I δ isoform (protein, UniProt P48730 1-415, looked up)
Casein kinase I isoform delta: MELRVGNRYRLGRKIGSGSFGDIYLGTDIAAGEEVAIKLECVKTKHPQLHIESKIYKMMQGGVGIPTIRWCGAEGDYNVMVMELLGPSLEDLFNFCSRKFSLKTVLLLADQMISRIEYIHSKNFIHRDVKPDNFLMGLGKKGNLVYIIDFGLAKKYRDARTHQHIPYRENKNLTGTARYASINTHLGIEQSRRDDLESLGYVLMYFNLGSLPWQGLKAATKRQKYERISEKKMSTPIEVLCKGYPSEFATYLNFCRSLRFDDKPDYSYLRQLFRNLFHRQGFSYDYVFDWNMLKFGASRAADDAERERRDREERLRHSRNPATRGLPSTASGRLRGTQEVAPPTPLTPTSHTANTSPRPVSGMERERKVSMRLHRGAPVNISSSDLTGRQDTSRMSTSQIPGRVASSGLQSVVHR
In the case of B2, the “activation of the Wnt pathway” value (Wnt pathway) is reported as “activate the Wnt pathway”.

B3: CKIα: casein kinase I α isoform (protein, UniProt P48729 2-337, looked up)
Casein kinase I isoform alpha: ASSSGSKAEFIVGGKYKLVRKIGSGSFGDIYLAINITNGEEVAVKLESQKARHPQLLYESKLYKILQGGVGIPHIRWYGQEKDYNVLVMDLLGPSLEDLFNFCSRRFTMKTVLMLADQMISRIEYVHTKNFIHRDIKPDNFLMGIGRHCNKLFLIDFGLAKKYRDNRTRQHIPYREDKNLTGTARYASINAHLGIEQSRRDDMESLGYVLMYFNRTSLPWQGLKAATKKQKYEKISEKKMSTPVEVLCKGFPAEFAMYLNYCRGLRFEEAPDYMYLRQLFRILFRTLNHQYDYTFDWTMLKQKAAQQAASSSGQGQQAQTPTGKQTDKTKSNMKGF
In the case of B3, the “activation of the Wnt pathway” value (Wnt pathway) is reported as “not the case”.

B4: CKIε: mouse casein kinase I ε, SEQ ID NO:1, 416 amino acids, 98.9% identical to human CKIε; expressed from transfected cDNA (protein)
chain: MELRVGNKYRLGRKIGSGSFGDIYLGANIASGEEVAIKLECVKTKHPQLHIESKFYKMMQGGVGIPSIKWCGAEGDYNVMVMELLGPSLEDLFNFCSRKFSLKTVLLLADQMISRIEYIHSKNFIHRDVKPDNFLMGLGKKGNLVYIIDFGLAKKYRDARTHQHIPYRENKNLTGTARYASINTHLGIEQSRRDDLESLGYVLMYFNLGSLPWQGLKAATKRQKYERISEKKMSTPIEVLCKGYPSEFSTYLNFCRSLRFDDKPDYSYLRQLFRNLFHRQGFSYDYVFDWNMLKFGAARNPEDVDRERREHEREERMGQLRGSATRALPPGPPTGATANRLRSAAEPVASTPASRIQQTGNTSPRAISRADRERKVSMRLHRGAPANVSSSDLTGRQEVSRLAASQTSVPFDHLGK
modifications: HA tag; Mus Casein Kinase I epsilon
notes: expressed from transfected cDNA
B4 was tested, and the “activation of the Wnt pathway” value (Wnt pathway) was “activate the Wnt pathway”, the “phosphorylation of GSK3” value (GSK3; in vitro) was “phosphorylated purified GSK3 protein as well as immunoprecipitated GSK3 protein” and the “Arm (β-catenin) protein level” value (Arm (β-catenin); cells expressing CKIε, copper induction) was “significantly higher than background”. The induction of transcription ([1]; Wnt-I and CKI without lef-I) was “did not induce the transcription” and the luciferase activity induced ([1]; cotransfected with Lef-1, Cos cells) was 12 fold.

B5: CKIεΔ: truncated CKIε mutant where the C-terminus was deleted (protein)
chain: MELRVGNKYRLGRKIGSGSFGDIYLGANIASGEEVAIKLECVKTKHPQLHIESKFYKMMQGGVGIPSIKWCGAEGDYNVMVMELLGPSLEDLFNFCSRKFSLKTVLLLADQMISRIEYIHSKNFIHRDVKPDNFLMGLGKKGNLVYIIDFGLAKKYRDARTHQHIPYRENKNLTGTARYASINTHLGIEQSRRDDLESLGYVLMYFNLGSLPWQGLKAATKRQKYERISEKKMSTPIEVLCKGYPSEFSTYLNFCRSLRFDDKPDYSYLRQLFRNLFHRQGFSYDYVFDWNMLKFGAARNPED
modifications: left off: small tags and cut ends
notes: truncated CKIε mutant where the C-terminus was deleted
For B5, the Axin binding (Axin) was “bound less Axin”, the “activation of the Wnt pathway” value (Wnt pathway) was “fails to activate the Wnt pathway” and the “kinase activity of C-terminally truncated mutant” value (GSK3) was “intact kinase activity”. For the same molecule, the “kinase activity of C-terminally truncated mutant” value (GSK3; listed as C-terminally truncated CKIε) was “has kinase activity”.
